This note sets out measurements from US20240294614A1 (ACADEMY OF MILITARY MEDICAL SCIENCE PLA, published 2024).

Where two headings read alike, the source gives them in different places.

The target in experiment [1] is T1, Nipah virus Malaysia strain glycoprotein G (Nipah virus, Malaysia strain (NiV-MY), UniProt Q9IH62 71-602).
T1 sequence: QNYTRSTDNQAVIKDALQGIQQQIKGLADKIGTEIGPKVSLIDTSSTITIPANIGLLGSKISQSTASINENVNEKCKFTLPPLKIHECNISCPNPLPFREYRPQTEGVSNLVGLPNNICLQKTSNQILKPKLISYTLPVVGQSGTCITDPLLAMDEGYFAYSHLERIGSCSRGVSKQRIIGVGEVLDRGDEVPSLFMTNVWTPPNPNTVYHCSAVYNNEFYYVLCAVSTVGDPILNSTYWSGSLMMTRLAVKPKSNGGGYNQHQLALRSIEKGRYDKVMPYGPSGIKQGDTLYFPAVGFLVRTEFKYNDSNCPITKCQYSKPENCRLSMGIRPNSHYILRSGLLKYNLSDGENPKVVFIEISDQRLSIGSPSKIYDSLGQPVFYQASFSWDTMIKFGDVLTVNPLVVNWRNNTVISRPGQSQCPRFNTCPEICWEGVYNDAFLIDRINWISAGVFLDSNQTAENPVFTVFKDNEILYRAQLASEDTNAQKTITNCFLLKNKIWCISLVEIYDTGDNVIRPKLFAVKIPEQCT
Kind of experiment: ELISA, G protein coated at 1 µg/mL, antibody 1:3 dilutions from 20 µg/mL.

Experiment [2] deals with T2, Hendra virus glycoprotein G (Hendra virus (HeV), UniProt O89343 71-604).
T2 sequence: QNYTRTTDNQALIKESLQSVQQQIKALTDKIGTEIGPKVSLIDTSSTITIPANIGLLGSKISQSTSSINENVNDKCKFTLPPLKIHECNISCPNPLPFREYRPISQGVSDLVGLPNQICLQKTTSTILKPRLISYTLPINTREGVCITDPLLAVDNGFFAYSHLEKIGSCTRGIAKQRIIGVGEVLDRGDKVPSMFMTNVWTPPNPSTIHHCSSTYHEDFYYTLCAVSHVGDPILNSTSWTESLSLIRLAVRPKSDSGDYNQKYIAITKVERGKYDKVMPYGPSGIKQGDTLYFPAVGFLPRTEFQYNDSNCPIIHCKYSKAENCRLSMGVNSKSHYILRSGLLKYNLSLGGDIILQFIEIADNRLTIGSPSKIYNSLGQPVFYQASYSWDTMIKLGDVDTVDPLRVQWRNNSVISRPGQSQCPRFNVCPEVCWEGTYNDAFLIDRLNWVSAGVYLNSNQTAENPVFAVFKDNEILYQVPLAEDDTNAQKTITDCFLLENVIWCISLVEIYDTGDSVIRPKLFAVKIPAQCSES
Described as above.

In experiment [3] the target is T1, Nipah virus Malaysia strain …. Kind of experiment: cell-based or functional assay.
Experiment [4] has as its target T2, Hendra virus glycoprotein G. Kind of experiment: cell-based or functional assay.
In experiment [5] the target is Nipah virus Bangladesh strain glycoprotein G (Nipah virus, Bangladesh strain (NiV-BD)). Kind of experiment: cell-based or functional assay.
The target is the same in experiment [6]. Kind of experiment: ELISA, G protein coated at 1 µg/mL, antibody 1:3 dilutions from 20 µg/mL.
Experiment [7] shares this target.
Experiment [8] shares this target. This is another data set of the same source.
For experiment [9], the target named is T1, Nipah virus Malaysia strain ….
The target in experiment [10] is T2, Hendra virus glycoprotein G.
Experiment [11] concerns the target Nipah virus Bangladesh strain glycoprotein G (Nipah virus, Bangladesh strain (NiV-BD)). This is another data set of the same source.
Experiment [12] deals with T1, Nipah virus Malaysia strain …. The source holds these as a separate data set.
Experiment [13] deals with T2, Hendra virus glycoprotein G. The source holds these as a separate data set.
For experiment [14], the target named is T1, Nipah virus Malaysia strain …. This is another data set of the same source.

B1: 2E7 (antibody, V domains shown)
VH: VQLQESGPGLVKPSETLSLTCSVSGGSISISNWWSWIRQSPGKGLEWIGYIYGSSGSTLYNPSLKSRVSISTDTSKNQFSLKLRSVTAADTAVYYCASPSIAATGDFDYWGQGVLVTVSS
VL: QSVLTQPPSASGAPGQSVTISCSGSSSNIGGNNVYWYQQLPGTAPKLLIYSSNQRPSGVPDRFSGSKSGTSASLAITGLRSEDEADYFCAVWDDSLGSPFFGGGTRLTVLR
notes: copies: 2 + 2
In the case of B1, the concentration giving a half-maximal response (EC50) in [1] worked out at 0.0267 µg/mL; in experiment [2], 0.0701 µg/mL.

B2: 2A4 (antibody, V domains shown)
VH: QVQLQESGPGLVKPSETLSLTCPVSGASISSHWWTWIRQPPGKGLEWIGEIHGNSGSTNYNPSLKSRVTISKDASKNHFSLKLSSVTAADTAVYYCARDGHLGILVVFATSRFDVWGPGVLVTVSS
VL: DIQMTQSPSSLSASVGDTVTITCQASQGIANNLNWYQQKPGKAPKLLIYRASSLQSGIPSRFSGSGSGTDYTLTISSLQPEDFATYYCQQGYTYPRTFGQGTKVEIKT
For B2, in experiment [3], the “percent neutralisation of NiV-MY pseudovirus at 1 µg/mL” value was about 100%. Moreover, the “IC50, neutralisation of HeV pseudovirus (HIV backbone, luciferase, 293T cells)” value (shortened to “IC50, neutralisation of HeV pseudovirus”) in experiment [4] came to 0.029 µg/mL. In addition, in experiment [4], the “percent neutralisation of HeV pseudovirus at 1 µg/mL” value is about 100%. The EC50 in experiment [1] was 0.0112 µg/mL; in experiment [2], 0.00737 µg/mL; in experiment [6] it was 0.0045 µg/mL. This molecule displayed a percent neutralisation of NiV-BD pseudovirus at 1 µg/mL in experiment [5] of 100%.

B3: 1E5 (antibody, V domains shown)
VH: VQLQESGPGVVKPSETLSLTCAVSGGSISDTYRWSWIRQPPGKGLEWIGYIYGSATSTYYNPSLSSRVTISKDMSKNQFSLNLNSVTAADTAVYYCARDYQYYYSGSYPTPHNWFDVWGPGVLVTVSS
VL: DIQMTQSPSSLSASVGDRVTITCRASQGIIDYLSWYQQKPGKAPKLLISTASNLESGVPSRFSGSGSGTEFTLTISSLQPEDFATYSCLQGYTTPYTFGQGTKVEIKT
As for B3, the figures for the Kd in experiment [7], in experiment [12] and in [13] were 171 pM, under 1 pM and 785 pM, respectively. For the same molecule, the IC50 (read off the curve) in experiment [8] is 0.04 µg/mL; in [9], about 0.06 µg/mL; in [10] it was about 0.2 µg/mL; in [11], 0.06 µg/mL; in experiment [14] it was about 0.1 µg/mL. In addition, the “percent neutralisation of NiV-MY pseudovirus at 1 µg/mL” value in [3] was about 100%. The “IC50, neutralisation of HeV pseudovirus” value in experiment [4] was 0.00574 µg/mL. Besides, the “percent neutralisation of HeV pseudovirus at 1 µg/mL” value in experiment [4] is about 100%. Besides, the EC50 in [1] is 0.00085 µg/mL; in [2], 0.00034 µg/mL; in experiment [6], 0.0026 µg/mL. In addition, the percent neutralisation of NiV-BD pseudovirus at 1 µg/mL in experiment [5] was found to be 100%.

B4: 1B6 (antibody, V domains shown)
VH: VQLQESGPGPVKPSETLSLTCTVSGGSMSRGYDWNWIRQPPGKGLEWIGYIGDDGGRSNYNPSLKSRVTISKDSSKNQFSLKLGSVSAADTAVYYCARALRAIWYNSGWFYNSLDVWGRGVLVTVSS
VL: DIVLTQSPASLAVSPGQRATITCRASEGVSVFGRDLIHWYQQKPGQPPKLLIYQTSNRDTGVPARFSGSGSGTDFTLTINPVEADDAADYYCLQSKNSYSFGQGTKVEIKT
Consider B4, for which, in [3], the “percent neutralisation of NiV-MY pseudovirus at 1 µg/mL” value is about 100%. The “IC50, neutralisation of HeV pseudovirus” value in experiment [4] amounted to 0.0163 µg/mL. In experiment [4], the “percent neutralisation of HeV pseudovirus at 1 µg/mL” value is about 100%. For the same molecule, the EC50 in [1] is 0.0639 µg/mL; in experiment [2], 0.0529 µg/mL; in experiment [6], 0.0284 µg/mL. The percent neutralisation of NiV-BD pseudovirus at 1 µg/mL in [5] is 100%.
